Test results published in publication PMC10025160, “Uncovering Zn^2+ as a cofactor of FAD-dependent Pseudomonas aeruginosa PAO1 D-2-hydroxyglutarate dehydrogenase” (The Journal of Biological Chemistry, 2023).

Substrate: O=C(O)C[C@@H](O)C(=O)O
Assay: initial rates, oxygen consumption (Oxy-32 electrode)
Format: biochemical, Pseudomonas aeruginosa
Settings: E-Zn^2+ form (purified with 1 mM ZnCl2, Zn:protein about 2:1), 1 mM PMS (fixed), 25 mM NaPO4, pH 7.4, 25 °C, apparent
Excerpt: initial rates, oxygen consumption (Oxy-32 electrode) on PaD2HGDH

B1: PaD2HGDH (Pseudomonas aeruginosa PAO1) (protein)
chain: MTREALIESLKPLVEPGKLLDDAASLDAYGKDWTKHFAPAPLAIVFPKSVEQVQAIVRWANQHKVGLVPSGGRTGLSAAAVAANGEVVVAFDYMNRILDFNAFDRTVVCQPGVVTKQLQTFAEENGLYYPVDFASSGSSQIGGNIGTNAGGIKVIRYGMTRNWVAGMKVVTGKGDLLELNKDLIKNATGYDMRQLFIGAEGTLGFVVEATMRLERTPKNLTAMVLGTPDFDSIMPVLHAFQSKLDLTAFEFFSDKALAKVLARGDVPRAFETDCPFYALLEFEATTEEVANEALATFEHCVEQGWVLDGVMSQSEQQLQNLWKLREYISETISHWTPYKNDISVTVSRVPAFLKDIDAIVEANYPDFEVVWFGHIGDGNLHLNILKPENLGKDEFFAKCATVNKWVFETVEKYNGSISAEHGVGMTKRDYLTYTRSETEIAYMKALKAVFDPNGIMNPGKIFAE
notes: wild type, His-tagged, pET20b(+), expressed in E. coli Rosetta(DE3)pLysS, Ni-NTA purified
B1 showed a Km of 5.1 ± 0.4 mM, a kcat of 38 ± 1 s⁻¹ and a kcat/Km of 7000 ± 500 M⁻¹ s⁻¹.
